Numbering of substitutions follows the chain as printed. Where two headings read alike, the source gives them in different places. Blank lines part the entries; values can stand above or below the binder they belong to.
Key:
[1] = target: T1, human CD30L expressed on cells (human, UniProt P32971 1-234); experiment: flow cytometry, B16-huCD30L cells
T1 construct: whole, on cells; also called huCD30L; B16-huCD30L cells
T1 sequence (looked up): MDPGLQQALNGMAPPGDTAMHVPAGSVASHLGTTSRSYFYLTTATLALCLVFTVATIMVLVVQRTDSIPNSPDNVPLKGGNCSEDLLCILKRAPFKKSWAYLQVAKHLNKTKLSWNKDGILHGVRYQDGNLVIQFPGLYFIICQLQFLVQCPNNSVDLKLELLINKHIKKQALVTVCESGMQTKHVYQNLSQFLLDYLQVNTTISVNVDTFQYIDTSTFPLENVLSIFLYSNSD
Method: Anti-CD30L antibody binding to a CD30L target was determined by flow cytometry, using B16 cells transfected to express human CD30L (compared to non-transfected B16), and using HEK293 cells transfected to express cynomolgus CD30L (compared to non-transfected HEK293). […] Cell surface bound antibodies were detected using a fluorescently labeled anti-human-IgG or anti-mouse IgG, depending on the Fc portion of the antibodies. After incubation with the secondary antibody, the cells were washed, fixed in a paraformaldehyde solution, and analyzed by flow cytometry to detect antibody binding.

[2] = target: T1, human CD30L expressed on cells; experiment: flow cytometry, blocking of huCD30 binding to B16-huCD30L cells
[3] = target: T2, cynomolgus CD30L expressed on HEK293 cells (cynomolgus, UniProt A0A7N9CVX7 1-234); experiment: cell-based or functional assay
T2 sequence: T1 sequence (looked up) with A19T, M20T, G32E, L41F, V75I, K78R, I204V, I227V

[4] = target: T1, human CD30L expressed on cells; experiment: cell-based or functional assay
[5] = target: T1, human CD30L expressed on cells; experiment: flow cytometry, PMA/ionomycin-stimulated primary lymphocytes, Patient 4 (CD, #01-051)
From the text: (§1) Peripheral blood mononuclear cells (PBMCs) were isolated from freshly collected whole blood from Ulcerative Colitis (UC) and Crohn's Disease (CD) patients, by conventional density gradient centrifugation. To induce CD30L expression on primary lymphocytes, the isolated cells were stimulated overnight with Phorbol 12-myristate 13-acetate (PMA) and ionomycin. […] After washing to remove unbound antibodies, the cells were fixed in a paraformaldehyde solution and analyzed by flow cytometry to quantify cell surface antibody binding.

[6] = target: T1, human CD30L expressed on cells; experiment: flow cytometry, PMA/ionomycin-stimulated primary lymphocytes, Patient 1 (CD, #04-021)
From the text: as §1

[7] = target: T1, human CD30L expressed on cells; experiment: flow cytometry, PMA/ionomycin-stimulated primary lymphocytes, Patient 3 (UC, #02-180)
From the text: as §1

[8] = target: T1, human CD30L expressed on cells; experiment: flow cytometry, PMA/ionomycin-stimulated primary lymphocytes, Patient 2 (UC, #03-041)
From the text: as §1

[9] = target: T3, human CD30L expressed on B16 cells (human, UniProt P32971 1-234); experiment: flow cytometry, binding to B16 cells expressing human CD30L (MFI)
T3 construct: whole, on cells; B16 cell line transfected to express human CD30L; also called B16-huCD30L; B16-rhCD30L
T3 sequence (looked up): T1 sequence (looked up)

[10] = target: T4, recombinant human CD30L (human, UniProt P32971 63-234); experiment: ELISA, binding to rhCD30L (OD 450 nm)
T4 construct: Purified recombinant protein of ELISA, BLI, Carterra and KinExA; also called rhCD30L; huCD30L
T4 sequence (looked up): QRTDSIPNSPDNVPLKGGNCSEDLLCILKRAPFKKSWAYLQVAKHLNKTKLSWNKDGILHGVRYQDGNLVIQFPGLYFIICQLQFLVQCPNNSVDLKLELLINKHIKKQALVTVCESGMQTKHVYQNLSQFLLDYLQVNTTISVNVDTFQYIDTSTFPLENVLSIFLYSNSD

[11] = target: T3, human CD30L expressed on B16 cells; experiment: flow cytometry on B16 cells expressing hCD30L
[12] = target: T5, recombinant cynomolgus CD30L (cynomolgus, UniProt A0A7N9CVX7 63-234); experiment: ELISA on recombinant protein
T5 construct: Purified recombinant protein; also called rcyCD30L; cyno CD30L
T5 sequence: T4 sequence (looked up) with V13I, K16R, I142V, I165V

[13] = target: T4, recombinant human CD30L; experiment: ELISA on recombinant protein
[14] = target: T6, recombinant mouse CD30L (mouse, UniProt P32972 68-239); experiment: ELISA on recombinant protein
T6 construct: Purified recombinant protein; also called rmCD30L
T6 sequence (looked up): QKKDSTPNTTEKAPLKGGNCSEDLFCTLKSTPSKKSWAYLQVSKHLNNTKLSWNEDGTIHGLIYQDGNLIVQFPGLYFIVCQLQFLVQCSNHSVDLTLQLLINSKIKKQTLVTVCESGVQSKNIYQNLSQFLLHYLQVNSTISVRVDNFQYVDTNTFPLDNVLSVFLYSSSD

[15] = target: T4, recombinant human CD30L; experiment: BLI, CD30 association to CD30L held by captured IgG; competitor rhCD30
Method: Briefly, individual anti-human biosensors were loaded with purified IgG (normalized to 10 μg/mL) and a baseline was measured for each biosensor. Biosensors were saturated with biotin and with polyclonal hulgG and a baseline was measured. Loaded biosensors were then allowed to bind CD30L and the association rate was measured for the binding. Biosensors were moved to buffer wells to measure the dissociation rate.

[16] = target: T4, recombinant human CD30L; experiment: recombinant blocking ELISA; competitor CD30
[17] = target: T7, recombinant human CD30L protein (human, UniProt P32971 63-234); experiment: ELISA, CD30 competitor, 1/10 dil
T7 construct: Recombinant protein used in ELISA; also called huCD30L
T7 sequence (looked up): T4 sequence (looked up)

[18] = target: T8, recombinant cynomolgus CD30L protein (cynomolgus, UniProt A0A7N9CVX7 63-234); experiment: ELISA, 1/500 dil
T8 construct: Recombinant protein used in ELISA; also called cyCD30L
T8 sequence: T4 sequence (looked up) with V13I, K16R, I142V, I165V

[19] = target: T8, recombinant cynomolgus CD30L protein; experiment: ELISA, 1/5000 dil
[20] = target: T7, recombinant human CD30L protein; experiment: ELISA, CD30 competitor, undil
[21] = target: T7, recombinant human CD30L protein; experiment: ELISA, CD30 competitor, 1/100 dil
[22] = target: T7, recombinant human CD30L protein; experiment: ELISA, CD30 competitor, 1/1000 dil
[23] = target: T8, recombinant cynomolgus CD30L protein; experiment: ELISA, 1/50 dil
[24] = target: T9, human CD30L expressed on cells (human, UniProt P32971 1-234); experiment: cell-based or functional assay; remark: listed apart in the source
T9 sequence: T1 sequence (looked up)

[25] = target: T10, cynomolgus CD30L expressed on cells (cynomolgus, UniProt A0A7N9CVX7 1-234); experiment: cell-based or functional assay
T10 sequence: T1 sequence (looked up) with A19T, M20T, G32E, L41F, V75I, K78R, I204V, I227V

[26] = target: T11, CDH13 (human, UniProt P55290 139-693); experiment: cell microarray, library and confirmation screens
T11 construct: whole, on cells; also called hit #16
T11 sequence (looked up): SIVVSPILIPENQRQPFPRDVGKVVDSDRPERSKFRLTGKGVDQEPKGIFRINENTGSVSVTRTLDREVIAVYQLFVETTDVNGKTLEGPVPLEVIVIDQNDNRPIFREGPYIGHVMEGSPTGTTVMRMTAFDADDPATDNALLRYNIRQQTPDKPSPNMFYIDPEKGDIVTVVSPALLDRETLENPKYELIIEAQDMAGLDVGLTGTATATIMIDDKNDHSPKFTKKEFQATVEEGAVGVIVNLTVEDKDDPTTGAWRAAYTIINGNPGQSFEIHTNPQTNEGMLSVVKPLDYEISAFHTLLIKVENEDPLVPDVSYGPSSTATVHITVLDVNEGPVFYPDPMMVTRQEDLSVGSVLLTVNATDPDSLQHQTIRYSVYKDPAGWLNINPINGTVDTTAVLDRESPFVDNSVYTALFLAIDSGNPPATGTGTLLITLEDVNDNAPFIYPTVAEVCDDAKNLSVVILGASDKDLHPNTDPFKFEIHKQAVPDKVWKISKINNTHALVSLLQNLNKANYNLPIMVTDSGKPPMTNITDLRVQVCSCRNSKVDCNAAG

[27] = target: T3, human CD30L expressed on B16 cells; experiment: cell-based or functional assay
[28] = target: T3, human CD30L expressed on B16 cells; experiment: flow cytometry, binding to B16 cells expressing human CD30L (MFI); remark: listed apart in the source
[29] = target: T4, recombinant human CD30L; experiment: ELISA, binding to rhCD30L (OD 450 nm); remark: listed apart in the source

EC50 [1]: 1.74 nM | IC50 [2]: 2.77 nM | Inhibition of IL-8 release in a dual cell assay (HEK293-cyCD30L cells + K299 cells) IC50 [3]: 0.68 nM | Inhibition of IL-8 release in a dual cell assay (B16-huCD30L cells + K299 cells) IC50 [4]: 1.74 nM | EC50 [5]: 2.82 nM | EC50 [6]: 3.63 nM | EC50 [7]: 3.07 nM | EC50 [8]: 3.12 nM
B1: anti-CD30L Reference 1 antibody (antibody, human IgG1, lambda, V domains shown)
VH: QVQLQESGPGLVKPSETLSLTCTVSGGSISSYIWSWIRQPAGKGLEWIGRIYASGNTNYNPSLKSRVTISVDTSKNQFSLKLSSMTAADTAVYYCARDYRVAGTYYYYYGLDVWGQGTTVTVSS
VL: QSALTQPASVSGSPGQSITISCTGTSSDVGVYDYVSWYQQHPGKAPKLMIYEVSNRPSGVSNRFSGSKSGNTASLTISGLQTEDEADYYCSSYTSRSTWVFGGGTKLTVLG

EC50 (read off the curve) [9]: ~3 nM | EC50 (read off the curve) [10]: ~0.1 nM | hCD30L B16 (+) FLOW [11]: 8.42e+06 | rcyCD30L (+) ELISA [12]: 0.982 | rhCD30L (+) ELISA [13]: 1.41 | rmCD30L (+) ELISA [14]: 0.048 | rhCD30L:rhCD30 Blocking [15]: 0.071 | IC50 [16]: 3.51 nM
B2: anti-CD30L antibody clone 82 (antibody, V domains shown)
VH: EVQLVESGGGLVQPGGSLRLSCAVSGITFSNAWMSWVRQAPGKGLEWVGRIKSKTYGGTTDYAAPVKGRFIISRDDSKDTLYLQMNSLKTEDTAIYYCTTDPWNYVNYNYFMDVWGKGTTVTVSS
VL: DIQMTQSPSSLSASVGDRVTITCRASQDIRNYLAWYQQKPGKITHLLVYAASTLQSGVPSRFSGSGSGTDFTLTINSLQPEDVATYYCQNYFSVPLTFGGGTKVEIK
notes: purified recombinant IgG (held by anti-human biosensors); mouse strain #1

% inhibition [17]: 98% | Elisa Binding (OD) [18]: 2.87 OD | Elisa Binding (OD) [19]: 1.16 OD | % inhibition [20]: 98% | % inhibition [21]: 34% | % inhibition [22]: 0% | Elisa Binding (OD) [23]: 2.83 OD | EC50 [5]: 4.53 nM | EC50 [6]: 7.45 nM | EC50 [7]: 5.57 nM | EC50 [8]: 5.43 nM
B3: Clone 1 (antibody, V domains shown)
VH: QVQLQESGPGLVKPSETLSLTCTVSGGSISGYYWSWIRQPPVKGLEWIGYIFYSGYTKYNPSLKSRVTISVDTSKNQFSLKLSSVTAADTAVYYCARDRWDFDYWGQGALVTVSS
VL: AIQMTQSPSYLSASVGDRVTIACRASQGIRNNLGWYQQKPGKAPKLLIYAESSLQSGVPSRFSGSGSGTDFTLTISSLQPEDFATYYCLQDFNYPYTFGQGTKLEIK
notes: also called CLONE_1 (parental)

IL-8 release dual cell assay, fold better IC50 than reference 1 (ref1) anti-CD30L [24]: 2 fold | IL-8 release dual cell assay, fold better IC50 than reference 1 (ref1) anti-CD30L [25]: 2.6 fold | binding result [26]: no binding (tested: 5 µg/mL)
B4: anti-CD30L antibody clone 2 with IgG1 constant region SEQ ID NO: 502 (antibody, V domains shown)
VH: EVQLVESGGGLVQPGRSLRLSCAASGFNFDDYAMHWVRQAPGKGLEWVSGISWRSGNIGYAGSVKGRFTISRDNAKNSLYLQMNSLRPEDSALYYCAKDKGIGFNWNYEGFDYWGQGTLVTVSS
VL: DIQMTQSPSSLSASVGDRVTITCRASQGISNHLAWFQQKPGKAPKSLIYAASSLQSGVPSKFSGSGSGTDFTLTISSLQPEDFATYYCQQYVTYPLTFGGGTKVEIK
notes: copies: 2 + 2

IC50 (read off the curve), IL-8 release, dual cell assay (B16-huCD30L cells + K299 cells) [27]: ~2 nM | EC50 (read off the curve) [28]: ~1 nM | EC50 (read off the curve) [29]: ~0.2 nM | hCD30L B16 (+) FLOW [11]: 8.3e+06 | rcyCD30L (+) ELISA [12]: 0.475 | rhCD30L (+) ELISA [13]: 0.941 | rmCD30L (+) ELISA [14]: 0.048 | rhCD30L:rhCD30 Blocking [15]: 0.0635 | IC50 [16]: 2.74 nM
B5: anti-CD30L antibody clone 80 (antibody, V domains shown)
VH: EVQLVESGGGLVQPGGSLRLSCEVSGFTFSSYDMHWVRQVTGTGLEWVSSIGIGGDTYYPGSVKGRFTISRENAKNSLYLQMNSLRGGDTGVYYCARGEWDLLWYFMDVWGKGTTVTVSS
VL: B4 VL with V15I, N31S, H32W, F36Y, S46L, K61R, Y91A, V92N, T93S, Y94F
notes: as for B2

% inhibition [17]: 98% | Elisa Binding (OD) [18]: 3.18 OD | Elisa Binding (OD) [19]: 1.23 OD | % inhibition [20]: 98% | % inhibition [21]: 45% | % inhibition [22]: 1% | Elisa Binding (OD) [23]: 3.76 OD | EC50 [5]: 1.72 nM | EC50 [6]: 2.4 nM | EC50 [7]: 1.71 nM | EC50 [8]: 1.55 nM
B6: Clone 2 (antibody, V domains shown)
VH: B4 VH
VL: B4 VL
notes: also called CLONE_2 (parental)
